# Measured values reported in patent US20210332123A1 (SUZHOU KANOVA BIOPHARMACEUTICAL, published 2021).
# Changes are numbered by the printed parent chain.
# T1: human IL-25 (human, UniProt Q9H293 33-177)
# T1 construct: ELISA used bought R&D systems #1258-IL-025/CF; Treated as one molecule; also called IL-17E; human IL-17E
# T1 sequence (looked up): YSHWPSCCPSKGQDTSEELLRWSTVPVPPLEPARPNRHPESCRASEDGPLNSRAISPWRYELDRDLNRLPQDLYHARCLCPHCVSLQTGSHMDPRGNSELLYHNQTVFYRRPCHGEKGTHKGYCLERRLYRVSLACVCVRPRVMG
# T2: mouse IL-25 (mouse, UniProt Q8VHH8 17-169, limits assumed)
# T2 construct: In-house production
# T2 sequence (looked up): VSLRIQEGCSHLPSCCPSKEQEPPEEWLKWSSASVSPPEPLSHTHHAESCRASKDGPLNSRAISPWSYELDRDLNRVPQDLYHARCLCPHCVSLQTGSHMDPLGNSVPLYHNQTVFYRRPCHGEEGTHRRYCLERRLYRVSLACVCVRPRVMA
# T3: human IL-17B (human, UniProt Q9UHF5 21-180)
# T3 sequence (looked up): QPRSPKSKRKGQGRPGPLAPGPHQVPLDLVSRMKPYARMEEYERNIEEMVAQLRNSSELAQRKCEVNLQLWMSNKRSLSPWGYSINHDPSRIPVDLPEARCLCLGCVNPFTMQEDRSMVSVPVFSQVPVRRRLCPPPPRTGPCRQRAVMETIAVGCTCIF
# B1: VH1-1 + VL2-1 (humanized anti-IL-25 antibody formed by VH1-1 and VL2-1) (antibody, V domains shown)
# VH: QVTLKESGPTLVKPTQTLTLTCTFSGFSLSTSGMGLGWIRQPPGKALEWLAHIWWDDVKHYKPALKSRLTITKDTSKNQVVLTMTNVDPVDTATYYCARMGQLHYYGYDYAMDYWGQGTLVTVSS
# VL: DIQLTQSPSFLSASVGDRVTITCSASSSVSYMYWYQQKPGKAPKPLIYRTSNLASGVPSRFSGSGSGTEYTLTISSMQPEDFATYYCQLYHSYPPTWTFGQGTKLEIK
# B2: VH2-1 + VL1-2 (humanized anti-IL-25 antibody formed by VH2-1 and VL1-2) (antibody, V domains shown)
# VH: B1 VH with K5R, T10A, V12L, T72S, M84I
# VL: EIVLTQSPATLSASPGERVTISCSASSSVSYMYWYQQKPGQAPRPLIYRTSNLASGVPARFSGSGSGTDYTLTISSMEPEDFATYYCQLYHSYPPTWTFGQGTKLEIK
# B3: VH1-1 + VL1-2 (humanized anti-IL-25 antibody formed by VH1-1 and VL1-2) (antibody, V domains shown)
# VH: B1 VH
# VL: B2 VL
# notes: Captured by anti-human Fc gamma antibody in SPR
# B4: VH2-1 + VL2-1 (humanized anti-IL-25 antibody formed by VH2-1 and VL2-1) (antibody, V domains shown)
# VH: B1 VH with K5R, T10A, V12L, T72S, M84I
# VL: B1 VL
# B5: murine anti-IL-25 monoclonal antibody 18H3 (antibody, V domains shown)
# VH: QVTLKESGPGILQPSQTLSLTCSFSGFSLSTSGMGLGWIRQPSGKGLEWLAHIWWDDVKHYKPALKSRLTISKDISSSQVFLTIASVDTADTATYYCARMGQLHYYGYDYAMDYWGQGTSVTVSS
# VL: QIVLTQSPAIMSASPGEKVTISCSASSSVSYMYWYQQKPGSSPKPWIYRTSNLASGVPARFSGSGSGTSYSLTISSMEAEDAATYYCQLYHSYPPTWTFGGGTKLEIK
# notes: also called parental antibody; parental murine mAb
# What was measured:
# [1] = target: T1, human IL-25; test: ELISA, plate coated with human IL-25 (hIl25-HIS), OD450, Example 4; unit from the axis lg(nM) and paragraph 95
# Description: MaxiSorp 96-well plates (NUNC #449824, www.thermofisher.com) were coated with 2 μg/ml human IL-25 (R&D systems #1258-IL-025/CF) in 1×PBS (50 μl/well). Plates were incubated at 4° C. overnight. Coating solution was removed and plates were washed once with 200 μl/well PBST (1×PBS with 0.05% tween-20). Then 200 μl/well blocking buffer (1×PBS with 0.05% tween-20, 3% BSA) were added and incubated at room temperature for 1 hour. Blocking buffer was removed and plates were washed three times with 200 μl/well PBST (1×PBS with 0.05% tween-20). Anti-IL-25 antibodies (produced in Example 2) were diluted to 10, 3.33, 1.11, 0.37, 0.123, 0.041, 0.0137, 0.0046, 0.0015, 0.00031, 0.000102, 0.000034 μg/ml by 1×PBS and added to plates (50 μl/well). Plates were incubated at room temperature for 2 hours. Antibodies in the wells were removed and plates were washed three times with 200 μl/well PBST (1×PBS with 0.05% tween-20). Goat anti-human IgG (H&L)-HRP secondary antibody (Jackson Immuno Research #109-035-088, www.jacksonimmuno.com) was diluted 1:5000 in 1×PBS and added to each well (50 μl/well). Plates were incubated at room temperature for 1 hour. Secondary antibody was removed and plates were washed seven times with 200 μl/well PBST (1×PBS with 0.05% tween-20) each time. 50 μl/well TMB (eBioscience #85-00-4201-56, www.ebioscience.com) was added and plates were incubated at room temperature for several minutes. Then 50 μl/well 2N H₂SO₄ was added to stop the reaction. Optical density was measured at 450 nm in relation to human IL-25 binding.
# [2] = target: T2, mouse IL-25; test: ELISA, plate coated with mouse IL-25, OD450, Example 7; unit from the axis lg(nM) [panel Mouse IL-25]
# [3] = target: T1, human IL-25; test: cell-based or functional assay
# [4] = target: T1, human IL-25; test: SPR, Biacore T200; antibody captured by anti-human Fc, IL-25 as analyte
# Description: Anti-human Fc gamma specific antibody (Jackson Immuno Research, Lot no. 124448, Code. 109-008-098) was immobilized onto the Biacore T200 sensor chip using amine coupling method. Four antibodies secreted to the culture medium plus the parental antibody were injected and captured by anti-human Fc antibody via Fc (capture phase) individually. After equilibration, IL-25 was injected for 300 seconds (association phase) followed by the injection of running buffer for 1200 s (dissociation phase). Responses of reference flow cell (flow cell 1) were subtracted from those of humanized antibodies flow cells during each cycle. The surface was regenerated before the injection of another humanized antibody. The process was repeated until all antibodies are analyzed. The off-rates of humanized antibodies were obtained from fitting the experimental data locally to 1:1 interaction model using the Biacore T200 evaluation software. The antibodies were ranked by their dissociation rate constants (off-rates, Kd). The binders that interact with IL-25 with similar affinity to parental antibody were selected (Table 1).
# [5] = target: T3, human IL-17B; test: ELISA (FIG. 4)
# Description: MaxiSorp 96-well plates (NUNC #449824, www.thermofisher.com) were coated with 2 μg/ml human IL-17A (Cell Signaling #89285F, www.cellsignal.com), human IL-17F (Cell Signaling #8906LC, www.cellsignal.com), human IL-17B (Peprotech #200-28, www.peprotech.com), human IL-17C (R&D systems #1234-IL-025/CF, www.rndsystems.com), human IL-17D ((Peprotech #200-27, www.peprotech.com), human IL-17E (R&D systems #1258-IL-025/CF, www.rndsystems.com) in 1×PBS (50 μl/well) respectively. Plates were incubated at 4° C. overnight. Coating solution was removed and plates were washed once with 200 μl/well PBST (1×PBS with 0.05% tween-20). Then 200 μl/well blocking buffer (1×PBS with 0.05% tween-20, 3% BSA) was added and incubated at room temperature for 1 hour. Blocking buffer was removed and plates were washed three times with 200 μl/well PBST (1×PBS with 0.05% tween-20). The anti-IL-25 antibodies (produced in Example 2), were diluted to 10, 3.33, 1.11, 0.37, 0.123, 0.041, 0.0137, 0.0046, 0.0015, 0.00031, 0.000102, 0.000034 μg/ml by 1×PBS and added to the plates (50 μl/well). Plates were incubated at room temperature for 2 hours. Antibodies in the wells were removed and plates were washed three times with 200 μl/well PBST (1×PBS with 0.05% tween-20) each time. Goat anti-human IgG(H&L)-HRP secondary antibody (Jackson Immuno Research #109-035-088, www.jacksonimmuno.com) was diluted 1:5000 in 1×PBS and added to each well (50 μl/well). Plates were incubated at room temperature for 1 hour. Secondary antibody was removed and plates were washed seven times with 200 μl/well PBST (1×PBS with 0.05% tween-20) each time. 50 μl/well TMB (eBioscience #85-00-4201-56, www.ebioscience.com) was added and plates were incubated at room temperature for several minutes. Then 50 μl/well 2N H₂SO₄ was added to stop the reaction. Plates were read at 450 nm.
Binder,EC50 [1] [nM],EC50 [2] [nM],"IC50, CXCL1/GROalpha production of HT-29 cells stimulated by human IL-25 [A] [3] [nM]",Kd [4] [nM],koff [4] [s⁻¹],kon [4] [M⁻¹ s⁻¹],binding result [5]
B1,0.154,0.153,7.23,0.271,0.000259,957000,
B2,0.196,0.231,,0.275,0.000327,1.19e+06,
B3,0.252,0.242,11.4,0.267,0.000284,1.06e+06,
B4,0.187,0.244,,0.302,0.000353,1.17e+06,
B5,0.187,0.329,,0.34,0.000267,785000,no binding
